Data: patent US20200199647A1 (published 2020)

How the values were obtained:
[1] = target: T1, PP1c (human PP1cα amino acids 7-330, N-terminal Thio6/His6 tag) (human, UniProt P62136 7-330); assay: thermophoresis, labelled PP1c, unlabelled fragment titrated
T1 construct: range 7-330; Recombinant, from E. coli with GroEL/GroES and MnCl2; In thermophoresis it was labelled with the Monolith NT Red-NHS kit; also called protein phosphatase 1c; Thio6/His6-PP1c

[2] = target: T1, PP1c (human PP1cα amino acids 7-330, …); assay: thermophoresis (MST), labelled PP1c

T1 sequence (P62136 other isoform, or with tags, fused parts or gaps): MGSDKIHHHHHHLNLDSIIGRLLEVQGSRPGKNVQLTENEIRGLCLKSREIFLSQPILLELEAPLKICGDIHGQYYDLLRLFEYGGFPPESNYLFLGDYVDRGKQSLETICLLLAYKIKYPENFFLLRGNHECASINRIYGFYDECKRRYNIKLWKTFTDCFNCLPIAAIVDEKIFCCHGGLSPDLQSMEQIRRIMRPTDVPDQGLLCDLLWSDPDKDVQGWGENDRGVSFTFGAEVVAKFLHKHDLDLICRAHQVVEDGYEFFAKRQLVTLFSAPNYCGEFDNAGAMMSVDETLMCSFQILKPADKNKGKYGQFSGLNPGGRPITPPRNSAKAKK

| binding result [1] | binding result [2] | Binder |
| --- | --- | --- |
| no binding |  | R15B^N (human PPP1R15B amino acids 340-635, N-terminal MBP-tag, C-terminal His6-tag) (other, not shown: large carriers, range 340-635; also called R15B^340-635; amino-terminal fragment of R15B) RDNPTQFVPAAGDIPGNTQESTEEKIELLTTEVPLALEEESPSEGCPSSEIPMEKEPGEGRISVVDYSYLEGDLPISARPACSNKLIDYILGGASSDLETSSDPEGEDWDEEAEDDGFDSDSSLSDSDLEQDPEGLHLWNSFCSVDPYNPQNFTATIQTAARIVPEEPSDSEKDLSGKSDLENSSQSGSLPETPEHSSGEEDDWESSADEAESLKLWNSFCNSDDPYNPLNFKAPFQTSGENEKGCRDSKTPSESIVAISECHTLLSCKVQLLGSQESECPDSVQRDVLSGGRHTHHHHHHH |
|  | binds | R15B^C (human PPP1R15B amino acids 636-698, N-terminal MBP-tag, C-terminal His6-tag) (other, not shown: large carriers, range 636-698; also called R15B^636-698; carboxy-terminal fragment of R15B) VKRKKVTFLEEVTEYYISGDEDRKGPWEEFARDGCRFQKRIQETEDAIGYCLTFEHRERMFNRHHHHHH |
